In the RNAGym collection of RNA variant scans (doi:10.1073/pnas.2313332121):

B1: TPR t1 (parent)
chain: GACCAAUCUGCCCUCAGAGCUCGAGAACAUCUUCGGAUGCAGAGGAGGCAGGCUUCGGUGGCGCGAUAGCGCCAACGUCCUCAACCUCCAAUGCAUCCCACCACAUGAUGAUGCCUGAAGAGCCUUGGUUUUUUG

Variants of: B1
Test: polymerase ribozyme fitness, log enrichment relative to wild type (log ratio); higher = more active; in vitro selection for triplet polymerase activity
In short: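 A heterodimeric triplet polymerase ribozyme had each of its subunits mutagenized by PCR into a library, which was transcribed. One round of in vitro selection, done in triplicate, annealed each library with a biotinylated primer, its partner subunit and triplets, then incubated it frozen at −7 °C before gel excision of extended constructs, streptavidin-bead capture and RT-PCR. Fitness is the logarithm of genotype enrichment relative to wild-type enrichment, based on Illumina sequencing of inputs and outputs and inverse-variance-weighted replicate averages. A base-2 logarithm is used, and genotypes were kept only with ≥10 input reads and ≥1 read per output.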

Row | Variant | polymerase ribozyme fitness (log ratio)
1 | C15U C72A C73A U81A A84G | -4.77
2 | C62A C115U | -2.53
3 | A5U U9G C62A | -0.961
4 | C49U A119U C123U | 0.0952
5 | C8A C12G U14C C73U G77C C101A | -1.62
6 | G19U A50C C98U G110A A121G | -6.95
7 | U59A C85U G113A | -2.11
8 | G93A C99U | -4.67
9 | U96A C124U | 1.03
10 | A24G C82G | -1.98
11 | G60U G61A U106C G128A U130A | -4.75
12 | G69A U81A | -3.16
13 | C56A C73G | -2.34
14 | A2U U131G | -2.07
15 | G44U C114G | -3.66
16 | A74U C85U C94A | -1.55
17 | G45U C82U | -1.52
18 | U7G U54C U55G | 0.467
19 | C56U C82A G120A G128A | -0.705
20 | C12A C28U C86U C88U C101A A111C | -7.09
21 | A18G C53A C72U C85G | -4.61

Row | Variant | polymerase ribozyme fitness (log ratio)
22 | C22G U38A C64U G77U G120A | -3.99
23 | A2U A6G U92C A121C | -0.755
24 | C11U A41U C62U C85A C102U C114G G120C | -6.27
25 | C94U G117U | 0.0636
26 | G48A A100U | -1.19
27 | A50U C53A U55C C73U | -0.723
28 | C70U A103G | -4.3
29 | C15A A84U | -1.41
30 | A90G C104U | -0.0421
31 | C11A A26U C72A | -5.37
32 | C4U C40U | -1.42
33 | U87A G113C | -2.81
34 | C12U C72G C102A | -2.37
35 | C64U G120U C123G | 1.13
36 | A66U A105U | -4.44
37 | A27U A83U G128C | -6.05
38 | C70G G120C | -1.8
39 | G60A U112G G120A | -2.56
40 | C20G G45A U130C | -5.42
41 | C13G C85G U112A G120C | -1.17
42 | U96G C114A | 0.0255

Row | Variant | polymerase ribozyme fitness (log ratio)
43 | C85U C101A C104A | -3.57
44 | C70A C104A U109A G128C | -7.62
45 | C12G G47C C53U C56U G113A A118C | -5.05
46 | U54C A118G | -0.7
47 | U21A A27G G51U U116C | -7.29
48 | C94A A105C | -4.8
49 | A6G A90G U112A | 1.69
50 | A84G G93U C101A | -3.07
51 | C20A A27C C62U | -4.63
52 | C12G C88G | -0.624
53 | G71U C82G | -1.17
54 | A6U A26U | -3.54
55 | C8G U54G | 0.644
56 | C13G A16U C82A C89G | -4.33
57 | G77U U92G C124U | -1.84
58 | G44U A46U U112C | -0.701
59 | G47A U78C | -1.09
60 | C11G A121G | 1.78
61 | G69C U78G C102U G110A | -6.81
62 | A43G A66G | -4.35
63 | A41U A90C | -1.41

Row | Variant | polymerase ribozyme fitness (log ratio)
64 | G36C G44A G71U A75G C89A | -4.65
65 | A5G A6G C11U C28U G120U | -2.3
66 | C11G U21A C53A C97G | -3.53
67 | C15U C115U | -1.42
68 | U32A G48U G58A C123U | -4.55
69 | G69C C101A | -2.4
70 | C53U C79G | -1.2
71 | C15U C80A | -4.32
72 | C34A C40U A41U C101A C114A G120A | -6.72
73 | C70A U106G | -4.07
74 | C11U U21A A27G C70G A105G | -5.92
75 | U7A U106A | 0.182
76 | C22U U38G C73U | -4.47
77 | C15A G60U U131A | -1.3
78 | G63C C124U | 0.611
79 | A50U G110C | -4.17
80 | C22A A29G C40G G61U C72A A83U U131A | -5.02
81 | G44C G113C | -3.05
82 | G65A A119U | -6.05
83 | C13G G47A | -2.67
